Residue numbers refer to the chain shown, from its start.
B1: JS016-38 (antibody, V domains shown)
VH: EVQLVESGGGLVQPGGSLRLSCAASGFRVRRNYMSWVRQAPGKGLEWVSVIYPGGSTFYADSVKGRFTISRDNSMNTLFLQMNSLRAEDTAVYYCARVLPMYGDYLDYWGQGTLVTVSS
VL: DIVMTQSPSSLSASVGDRVTITCRASQNIERYLNWYQQKPGKAPKLLIYAASSLQSGVPSRFSGSGSGTDFTLTISSLQPEDFATYYCQQSASSTPEYTFGQGTKLEIKR
B2: CB6-15 (重链突变库克隆) (Fab)
VH: B1 VH with R28Q, R30N
light: […]
notes: also called CB6-15-VH; CB6-15-HC
B3: CB6-30 (轻链突变库克隆) (Fab, V domains shown)
VH: B1 VH with R28T, R30S, R31S, P53S
VL: DIVMTQSPSSLSASVGDRVTITCRASQWILPYLNWYQQKPGKAPKLLIYAASSLQSGVPSRFSGSGSGTDFTLTISSLQPEDFATYYCQQSSSSTPEYTFGQGTKLEIK
notes: also called CB6-30-VL; CB6-30-LC
B4: CB6-31 (轻链突变库克隆) (Fab, V domains shown)
VH: B1 VH with R28T, R30S, R31S, P53S
VL: B3 VL with W28Q, L30R, P31Q, S94P
notes: also called CB6-31-VL; CB6-31-LC
B5: CB6-20 (轻链突变库克隆) (Fab, V domains shown)
VH: B1 VH with R28T, R30S, R31S, P53S
VL: B3 VL with W28A, S92Y, S94I, T95I
notes: also called CB6-20-VL; CB6-20-LC
B6: CB6-33 (轻链突变库克隆) (Fab, V domains shown)
VH: B1 VH with R28T, R30S, R31S, P53S
VL: B3 VL with W28N, S94A, T95V
notes: also called CB6-33-VL; CB6-33-LC
B7: CB6-32 (轻链突变库克隆) (Fab, V domains shown)
VH: B1 VH with R28T, R30S, R31S, P53S
VL: B3 VL with W28D, L30D, P31G, S92A, S94P, T95V
notes: also called CB6-32-VL; CB6-32-LC
B8: CB6-43 (轻链突变库克隆) (Fab, V domains shown)
VH: B1 VH with R28T, R30S, R31S, P53S
VL: B3 VL with W28N, L30H, P31T, S92G, T95I
notes: also called CB6-43-VL; CB6-43-LC
B9: CB6-37 (轻链突变库克隆) (Fab, V domains shown)
VH: B1 VH with R28T, R30S, R31S, P53S
VL: B3 VL with W28M, S94A
notes: also called CB6-37-VL; CB6-37-LC
B10: CB6-38 (轻链突变库克隆) (Fab, V domains shown)
VH: B1 VH with R28T, R30S, R31S, P53S
VL: B3 VL with W28N, L30E, P31R, S92A
notes: also called CB6-38-VL; CB6-38-LC
B11: CB6-22 (轻链突变库克隆) (Fab, V domains shown)
VH: B1 VH with R28T, R30S, R31S, P53S
VL: B3 VL with W28R, S94A
notes: also called CB6-22-VL; CB6-22-LC
B12: CB6-29 (轻链突变库克隆) (Fab, V domains shown)
VH: B1 VH with R28T, R30S, R31S, P53S
VL: B3 VL with W28M, S94A, T95K
notes: also called CB6-29-VL; CB6-29-LC
B13: CB6-23 (轻链突变库克隆) (Fab, V domains shown)
VH: B1 VH with R28T, R30S, R31S, P53S
VL: B3 VL with L30P, P31S, S92K, S94W, T95K
notes: also called CB6-23-VL; CB6-23-LC
B14: CB6-21 (轻链突变库克隆) (Fab, V domains shown)
VH: B1 VH with R28T, R30S, R31S, P53S
VL: B3 VL with L30G, P31N, S92T, S94N, T95R
notes: also called CB6-21-VL; CB6-21-LC
B15: CB6-41 (轻链突变库克隆) (Fab, V domains shown)
VH: B1 VH with R28T, R30S, R31S, P53S
VL: B3 VL with W28A, L30A, P31Y, L47E, S92P, S94A, T95F
notes: also called CB6-41-VL; CB6-41-LC
B16: CB6-25 (轻链突变库克隆) (Fab, V domains shown)
VH: B1 VH with R28T, R30S, R31S, P53S
VL: B3 VL with W28N, L30M, P31Q, S94P, T95K
notes: also called CB6-25-VL; CB6-25-LC
B17: CB6-40 (轻链突变库克隆) (Fab, V domains shown)
VH: B1 VH with R28T, R30S, R31S, P53S
VL: B3 VL with W28K, L30S, P31Q, S92T, S94F, T95M
notes: also called CB6-40-VL; CB6-40-LC
B18: CB6-17 (轻链突变库克隆) (Fab, V domains shown)
VH: B1 VH with R28T, R30S, R31S, P53S
VL: B3 VL with W28V, L30N, P31H, S92G, S94P
notes: also called CB6-17-VL; CB6-17-LC
B19: CB6-34 (轻链突变库克隆) (Fab, V domains shown)
VH: B1 VH with R28T, R30S, R31S, P53S
VL: B3 VL with W28S, P31Q, S94P, T95V
notes: also called CB6-34-VL; CB6-34-LC
B20: CB6-39 (轻链突变库克隆) (Fab, V domains shown)
VH: B1 VH with R28T, R30S, R31S, P53S
VL: B3 VL with W28P, L30N, P31Q, S92K, T95L
notes: also called CB6-39-VL; CB6-39-LC
B21: CB6-35 (轻链突变库克隆) (Fab, V domains shown)
VH: B1 VH with R28T, R30S, R31S, P53S
VL: B3 VL with W28K, L30H, P31Q, S92E, T95K
notes: also called CB6-35-VL; CB6-35-LC
B22: CB6-26 (轻链突变库克隆) (Fab, V domains shown)
VH: B1 VH with R28T, R30S, R31S, P53S
VL: B3 VL with W28R, L30E, P31Q, S92A, T95S
notes: also called CB6-26-VL; CB6-26-LC
B23: CB6-24 (轻链突变库克隆) (Fab, V domains shown)
VH: B1 VH with R28T, R30S, R31S, P53S
VL: B3 VL with W28Q, L30S, P31R, S94P
notes: also called CB6-24-VL; CB6-24-LC
B24: CB6-42 (轻链突变库克隆) (Fab, V domains shown)
VH: B1 VH with R28T, R30S, R31S, P53S
VL: B3 VL with W28S, L30I, P31Q, S92A, S94A, T95R
notes: also called CB6-42-VL; CB6-42-LC
B25: CB6-18 (轻链突变库克隆) (Fab, V domains shown)
VH: B1 VH with R28T, R30S, R31S, P53S
VL: B3 VL with W28D, L30H, P31V, S92G, S94P, T95V
notes: also called CB6-18-VL; CB6-18-LC
B26: CB6-36 (轻链突变库克隆) (Fab, V domains shown)
VH: B1 VH with R28T, R30S, R31S, P53S
VL: B3 VL with W28A, S94A, T95L
notes: also called CB6-36-VL; CB6-36-LC
B27: CB6-27 (轻链突变库克隆) (Fab, V domains shown)
VH: B1 VH with R28T, R30S, R31S, P53S
VL: B3 VL with W28S, S92N, S94P, T95R
notes: also called CB6-27-VL; CB6-27-LC
B28: CB6-28 (轻链突变库克隆) (Fab, V domains shown)
VH: B1 VH with R28T, R30S, R31S, P53S
VL: B3 VL with W28D, L30V, P31S, S92A, S94P
notes: also called CB6-28-VL; CB6-28-LC
B29: CB6-19 (轻链突变库克隆) (Fab, V domains shown)
VH: B1 VH with R28T, R30S, R31S, P53S
VL: B3 VL with W28Q, L30N, P31F, S92G, T95L
notes: also called CB6-19-VL; CB6-19-LC

The binders below were run against T1, 重组SARS-CoV-2-RBD-His (SARS-CoV-2, UniProt P0DTC2 319-541) (assay: BLI Octet Red 96e, antibody on Protein A probe, RBD-his in solution).
T1 construct: domain: RBD
Work on B1 yielded a Kd of less than 0.0741 nM, a koff of less than 1e-05 s⁻¹ and a kon of 135000 M⁻¹ s⁻¹.

The binders below were run against 生物素化的SARS-CoV-2 RBD (SARS-CoV-2, UniProt P0DTC2 319-541) (assay: ELISA screen, Fab culture supernatant on streptavidin-captured biotinylated RBD).
B2: binds.
B3: binds.
B4: binds.
B5: binds.
B6: binds.
B7: binds.
B8: binds.
B9: binds.
B10: binds.
B11: binds.
B12: binds.
B13: binds.
B14: binds.
B15: binds.
B16: binds.
B17: binds.
B18: binds.
B19: binds.
B20: binds.
B21: binds.
B22: binds.
B23: binds.
B24: binds.
B25: binds.
B26: binds.
B27: binds.
B28: binds.
B29: binds.

Each binder was assayed against T1, 重组SARS-CoV-2-RBD-His (assay: BLI Octet Red 96e, antibody on Protein A probe).
B1 was tested, and the “fold improvement of the affinity constant over CB6” value was ~100 倍 and the “fold slower dissociation rate than CB6” value was ~100 倍.

Reference: patent publication CN115073593A (SHANGHAI JUNSHI BIOSCIENCES CO LTD; JUNMENG BIOSCIENCES CO …, dated 2022)
